Molecular target: T1, IL-17 (IL-17A) (Homo sapiens, UniProt Q16552 Q16552:24-155)
T1 sequence: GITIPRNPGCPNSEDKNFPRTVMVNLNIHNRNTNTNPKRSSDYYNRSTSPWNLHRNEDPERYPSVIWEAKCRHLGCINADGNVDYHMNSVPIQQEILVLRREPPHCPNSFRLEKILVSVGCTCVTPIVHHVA
Assay: cell_activity; IL-6 release (ELISA), NIH3T3
Conditions: chain copies: 2
Experimental: First, human IL-17 and the aptamer produced in Example 1-2 were pre-incubated at 37° C. for 30 min, and added to NIH3T3 cell (ATCC, CRL1658) together with mouse TNFα (2 ng/mL). Then, after incubation for 24 hr, the culture supernatant was collected, and the production amount of IL-6 was measured by ELISA method described below. The IL-17 inhibitory action of each aptamer was determined from the production amount of IL-6. For comparison with the aptamer of the present invention, a conventionally-known aptamer (aptamer No. 50) against IL-17 was used.
ELISA method for verifying IL-17 inhibitory action of aptamer: A microtiter plate for ELISA was coated with rat anti-mouse IL-6 antibody (BD Biosciences, 2 μg/mL; 100 μL/well) diluted with PBS, and incubated at 4° C. overnight. The next day, the microtiter plate was washed 3 times with PBS/0.05% Tween 20, and applied blocking with PBS/1% BSA (200 μL/well) at room temperature for 2 hr. Then, the plate was washed 3 times with PBS/0.05% Tween 20. Recombinant mouse IL-6 (BD Biosciences; 100 μL/well) serially diluted with PBS/1% BSA/0.05% Tween 20 or culture supernatants (100 μL/well) were added to the plate. […] After 15 min, aqueous sodium hydroxide solution (2N: 50 μL/well) was added to stop the reaction, and the plate was read on a microtiter reader (Bio-Rad) by using a 405 nm filter.

B1: aptamer No. 52 (mixed)
mixed: GGGUAGCCGGAGGAGTCAGTAAUCGGUACCC
modifications: g(M)g(M)g(M)u(M)Ag(S)c(M)c(M)Gg(M)a(F)gg(M)a(M)g(S)Tc(F)a(F)gTa(M)a(M)u(M)c(M)g(M)g(M)u(F)a(M)CCC
Question: Which IC50 does the source give for B1 here?
Answer: Its IC50 is 1.11 nM.

From patent US20160046944, “APTAMER TO IL-17 AND USE THEREOF” (THE UNIVERSITY OF TOKYO, published 2016)
